Experimental data from patent US20140274766A1, “METHODS OF USING F-SPONDIN AS A BIOMARKER FOR CARTILAGE DEGENERATIVE CONDITIONS AND BONE DISEASES” (priority 2009, published 2014).

What was measured:
chick chondrocytes = test: Alkaline phosphatase (AP) activity in RA-stimulated chick chondrocyte cultures; assay type: cell-based; conditions: F-Spondin 1 ug/ml with RA, 3 days
Method: FIG. 16. Inhibition of F-spondin decreases AP activity in RA stimulated cultures. Chick chondrocytes were treated with RA at 100 nm for 5 days with and without F-spondin antibodies and AP activity assessed. Antibodies with specificities to the spondin domain (medium grey) and TSR domain (black) inhibited AP activity compared to ctrl (noAb) (light grey). Note the greater inhibitory effect of the TSR domain antibody. * p=<0.05 versus no ab ctrl.
FIG. 17. The pro-maturation effect of F-spondin is not inhibited following neutralization of TGF-β activity by coculture with Latency Associated Peptide (LAP). AP activity was determined in chick chondrocyte cultures by ELISA following RA stimulation for 3 days. Cultures were either ctrl (RA only) or RA with either F-Spondin (1 ug/ml) or LAP (10 or 100 ng/ml), or RA with F-Spondin (1 ug/ml) and LAP (10 or 100 ng/ml) in combination.
FIG. 18. Blocking αvβ3 integrin inhibits the promaturation effect of F-spondin. Chondocyte cultures were transfected as previously and stimulated with RA for 3 days in the presence of IgG control, or αvβ3 blocking antibodies prior to assay for AP activity. Inhibition of αvβ3 led to a ˜50% suppression of F-spondin-induced AP activity but had no effect on baseline AP activity (vector ctrl).
FIGS. 23A, 23B and 23C. F-spondin regulation of chondrocyte maturation requires the TSR domain. (A) Schematic representation of F-spondin protein domains and plasmid constructs encoding either full length (FS1) or TSR domain truncated (FS6) cDNAs. (B) Relative AP activity of FS or pcDNA3 control transfected cultures after 5 days treatment. (C) Relative AP activity following inhibition of F-spondin protein domains. Upper sternal chondrocytes were stimulated with 0, 10, 35 or 100 nM retinoic acid (RA) for 5 days in culture. […]
We next determined that the pro-maturation effect of F-spondin is not inhibited following neutralization of TGF-β activity by coculture with Latency Associated Peptide (LAP) (R&D Systems, Cat No 246-LP/CF). […] AP activity was determined in chick chondrocyte cultures by ELISA following RA stimulation for 3 days. […]

embryonic mouse tibia = test: Embryonic mouse tibia organ culture ex vivo (growth, staining, histology)
Method: FIGS. 20A, 20B and 20C. F-spondin regulates bone growth and morphology in mouse tibial organ cultures. Longitudinal growth and histological analysis of embryonic mouse tibia after 7 days of culture ex vivo. Tibia were treated with recombinant F-spondin FS (1 mg/ml) or an anti-F-spondin, TSR-domain specific (R1) antibody. (A) Representative images of whole tibia stained with alcian blue (proteoglycans) and alizarin red (mineral). (B) Tibial growth was measured after 7 days of organ culture and expressed as percent of original length at day 0. Average growth for control cultures has been set to 100% (C) H&E stained sections of corresponding limbs after 7 days treatment. Arrows indicate hypertrophic chondrocytes in the […] growth plate.
All animal experiments were conducted according to the guidelines of the Institutional Animal Care and Use Committee (IACUC) of New York University. […] After 12 hours, tibiae were placed in 24-well Falcon plates and initial longitudinal length was measured using a stereomicroscope. […] (purchased from R&D Systems, Minneapolis, Minn. (Cat No AF3135). Media was changed every 24 hours beginning on day one, and tibial length was measured again at the end of one week. The results were expressed as percentage changes in length relative to day one. […]

[1] = test system: OA cartilage explant cultures; conditions: cited from earlier work

AP activity (chick chondrocytes): increase
B1: F-spondin: 110 kDa, secreted, heparin-binding extracellular matrix glycoprotein; used as recombinant protein (R&D systems) or transfected-cell supernatant (protein, UniProt Q9HCB6 29-807, looked up)
Spondin-1: FSDETLDKVPKSEGYCSRILRAQGTRREGYTEFSLRVEGDPDFYKPGTSYRVTLSAAPPSYFRGFTLIALRENREGDKEEDHAGTFQIIDEEETQFMSNCPVAVTESTPRRRTRIQVFWIAPPAGTGCVILKASIVQKRIIYFQDEGSLTKKLCEQDSTFDGVTDKPILDCCACGTAKYRLTFYGNWSEKTHPKDYPRRANHWSAIIGGSHSKNYVLWEYGGYASEGVKQVAELGSPVKMEEEIRQQSDEVLTVIKAKAQWPAWQPLNVRAAPSAEFSVDRTRHLMSFLTMMGPSPDWNVGLSAEDLCTKECGWVQKVVQDLIPWDAGTDSGVTYESPNKPTIPQEKIRPLTSLDHPQSPFYDPEGGSITQVARVVIERIARKGEQCNIVPDNVDDIVADLAPEEKDEDDTPETCIYSNWSPWSACSSSTCDKGKRMRQRMLKAQLDLSVPCPDTQDFQPCMGPGCSDEDGSTCTMSEWITWSPCSISCGMGMRSRERYVKQFPEDGSVCTLPTEETEKCTVNEECSPSSCLMTEWGEWDECSATCGMGMKKRHRMIKMNPADGSMCKAETSQAEKCMMPECHTIPCLLSPWSEWSDCSVTCGKGMRTRQRMLKSLAELGDCNEDLEQVEKCMLPECPIDCELTEWSQWSECNKSCGKGHVIRTRMIQMEPQFGGAPCPETVQRKKCRIRKCLRNPSIQKLRWREARESRRSEQLKEESEGEQFPGCRMRPWTAWSECTKLCGGGIQERYMTVKKRFKSSQFTSCKDKKEIRACNVHPC
alizarin red staining (embryonic mouse tibia; 7 days culture, compared to untreated limbs): slight increase
number of hypertrophic chondrocytes (H&E) (embryonic mouse tibia; growth plate cartilage adjacent to mineralized core): increased numbers
MMP-13 secretion [1]: increase
type II collagen degradation [1]: increase
